Values quoted from earlier work as cited in patent US9879249B2, “Aldehyde-tagged protein-based drug carriers and methods of use” (Redwood Bioscience, Inc., priority 2009, dated 2018).

Conditions: calcitonin peptide alone, unconjugated

Q: For Calcitonin, which absorption half-life is on record?
A: The absorption half-life was 10 to 15 min.

Q: What about the elimination half-life of the same substance?
A: The elimination half-life was 50 to 80 min.
